Reference: patent publication US20100260668A1 (published 2010)

Target: T1, DLL4 (DLL ECD His tag, R&D 1506-D4-050) (UniProt Q9NR61 27-529)
T1 construct: extracellular domain; bought
Assay: BIACORE (SPR), DVD-Ig against DLL4

Binder	Kd	koff	kon
DVD488 (bispecific antibody, human IgG1, kappa, DVD-Ig; N-term; VD VEGF (AB014), C-term; VD DLL4 (AB072); HC linker short, LC linker short; also called DVD-Ig DVD488; DVD488H) heavy: not shown light: DIQMTQSPSSLSASVGDRVTITCSASQDISNYLNWYQQKPGKAPKVLIYFTSSLHSGVPSRFSGSGSGTDFTLTISSLQPEDFATYYCQQYSTVPWTFGQGTKVEIKRTVAAPDIQMTQSSSYLSVSLGGRVTITCKASDHINNWLAWYQQKPGNAPRLLISGATSLETGVPSRFSGSGSGKDYTLSITSLQTEDVATYYCQQYWSIPLTFGAGTKLELKRTVAAPSVFIFPPSDEQLKSGTASVVCLLNNFYPREAKVQWKVDNALQSGNSQESVTEQDSKDSTYSLSSTLTLSKADYEKHKVYACEVTHQGLSSPVTKSFNRGEC	0.418 nM	6.62e-05 s⁻¹	159000 M⁻¹ s⁻¹
DVD524 (bispecific antibody, human IgG1, lambda, DVD-Ig; N-term; VD VEGF (AB014), C-term; VD DLL4 (AB073); HC linker long, LC linker short; also called DVD-Ig DVD524; DVD524H) heavy: not shown light: DIQMTQSPSSLSASVGDRVTITCSASQDISNYLNWYQQKPGKAPKVLIYFTSSLHSGVPSRFSGSGSGTDFTLTISSLQPEDFATYYCQQYSTVPWTFGQGTKVEIKRTVAAPQAVVTQESALTTSPGETVTLTCRSSTGAVTTSNYANWVQEKPDHLFTGLIGGTNNRAPGVPARFSGSLIGDKAALTITGAQTEDEAIYFCALWYSNHWVFGGGTKLTVLGQPKAAPSVTLFPPSSEELQANKATLVCLISDFYPGAVTVAWKADSSPVKAGVETTTPSKQSNNKYAASSYLSLTPEQWKSHRSYSCQVTHEGSTVEKTVAPTECS	9.45 nM	0.000877 s⁻¹	92800 M⁻¹ s⁻¹
DVD467 (bispecific antibody, human IgG1, kappa, DVD-Ig; N-term; VD DLL4 (AB015), C-term; VD VEGF (AB071); HC linker short, LC linker short; 2'; 3'; also called DVD-Ig DVD467; DVD467H) heavy: not shown light: DIQMTQSPSSLSASVGDRVTITCRASQDVSTAVAWYQQKPGKAPKLLIYSASFLYSGVPSRFSGSGSGTDFTLTISSLQPEDFATTYYCQQSYTGTVTFGQGTKVEIKRTVAAPDIQMTQSPSSLSASVGDRVTITCRASQVIRRSLAWYQQKPGKAPKLLIYAASNLASGVPSRFSGSGSGTDFTLTISSLQPEDFATYYCQQSNTSPLTFGQGTKVEIKRTVAAPSVFIFPPSDEQLKSGTASVVCLLNNFYPREAKVQWKVDNALQSGNSQESVTEQDSKDSTYSLSSTLTLSKADYEKHKVYACEVTHQGLSSPVTKSFNRGEC	0.302 nM	0.000177 s⁻¹	585000 M⁻¹ s⁻¹

The remaining lines, values ahead:

Kd	koff	kon	Binder
1.39 nM	0.000183 s⁻¹	132000 M⁻¹ s⁻¹	DVD494 (bispecific antibody, human IgG1, kappa, DVD-Ig; N-term; VD VEGF (AB014), C-term; VD DLL4 (AB072); HC linker long, LC linker long; also called DVD-Ig DVD494; DVD494H) heavy: not shown light: DIQMTQSPSSLSASVGDRVTITCSASQDISNYLNWYQQKPGKAPKVLIYFTSSLHSGVPSRFSGSGSGTDFTLTISSLQPEDFATYYCQQYSTVPWTFGQGTKVEIKRTVAAPSVFIFPPDIQMTQSSSYLSVSLGGRVTITCKASDHINNWLAWYQQKPGNAPRLLISGATSLETGVPSRFSGSGSGKDYTLSITSLQTEDVATYYCQQYWSIPLTFGAGTKLELKRTVAAPSVFIFPPSDEQLKSGTASVVCLLNNFYPREAKVQWKVDNALQSGNSQESVTEQDSKDSTYSLSSTLTLSKADYEKHKVYACEVTHQGLSSPVTKSFNRGEC
1.47 nM	0.000104 s⁻¹	70700 M⁻¹ s⁻¹	DVD506 (bispecific antibody, human IgG1, kappa, DVD-Ig; N-term; VD VEGF (AB014), C-term; VD DLL4 (AB072); HC linker short, LC linker long; also called DVD-Ig DVD506; DVD506H) heavy: not shown light: DIQMTQSPSSLSASVGDRVTITCSASQDISNYLNWYQQKPGKAPKVLIYFTSSLHSGVPSRFSGSGSGTDFTLTISSLQPEDFATYYCQQYSTVPWTFGQGTKVEIKRTVAAPSVFIFPPDIQMTQSSSYLSVSLGGRVTITCKASDHINNWLAWYQQKPGNAPRLLISGATSLETGVPSRFSGSGSGKDYTLSITSLQTEDVATYYCQQYWSIPLTFGAGTKLELKRTVAAPSVFIFPPSDEQLKSGTASVVCLLNNFYPREAKVQWKVDNALQSGNSQESVTEQDSKDSTYSLSSTLTLSKADYEKHKVYACEVTHQGLSSPVTKSFNRGEC
5.38 nM	0.00219 s⁻¹	407000 M⁻¹ s⁻¹	DVD530 (bispecific antibody, human IgG1, kappa, lambda, L234A L235A, DVD-Ig; N-term; VD VEGF (AB014), C-term; VD DLL4 (AB073); HC linker short, LC linker long; also called DVD-Ig DVD530; DVD530H) heavy: not shown light: DIQMTQSPSSLSASVGDRVTITCSASQDISNYLNWYQQKPGKAPKVLIYFTSSLHSGVPSRFSGSGSGTDFTLTISSLQPEDFATYYCQQYSTVPWTFGQGTKVEIKRTVAAPSVFIFPPQAVVTQESALTTSPGETVTLTCRSSTGAVTTSNYANWVQEKPDHLFTGLIGGTNNRAPGVPARFSGSLIGDKAALTITGAQTEDEAIYFCALWYSNHWVFGGGTKLTVLGQPKAAPSVTLFPPSSEELQANKATLVCLISDFYPGAVTVAWKADSSPVKAGVETTTPSKQSNNKYAASSYLSLTPEQWKSHRSYSCQVTHEGSTVEKTVAPTECS
